This data set relates to F1*sub RNA substrate (template-directed ligation). As to the kind of experiment: fraction ligated after 30 min (ligated reads / total reads); higher = more ligase activity; sequences stand for … in GAGACCGCAACTGAAAAGTTGT…AGTTCTGCACGTAGAAGCAAAAGGC
To be noted: 42 °C. In outline: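 Ribozyme variants were transcribed with T7 from PCR-amplified oligo-pool templates and gel-purified. Ligated and unligated bands, separated on gel, were reverse transcribed with barcoded primers and sequenced on a MiSeq, with core bases filtered at quality ≥20. Fraction ligated per variant was computed as ligated reads divided by total reads.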
In turn, “TATCACTTGTCGTAAAATTTGGATGGGTTGA [3d2059]” displayed a fraction ligated of 0.803. The value for “TATCACTTGTCGTAAACACTGGATGGGTTGA [3d2081]” was 0.787; that for “TATCACTTGTCGTAAACACTTGATGGGTTGA [3d2082]” was 0.727; that for “TATCACTTGTCGTAAACACTTGGAGGGTTGA [3d2084]” was 0.0636. The value for “TATCACTTGTCGTAAACACTTGGATGGGTTA [3d2086]” was 0.492; that for “TATCACTTGTCGTAAACACTTGGATGGGTTG [3d2087]” was 0.774. Sequence “TATCACTTGTCGTAAACACTTGGATGGGTTGA [2d237]” came in with a fraction ligated of 0.786. The value for “TATCACTTGTCGTAAACACTTGGATGGTTGA [3d2085]” was 0.105; that for “TATCACTTGTCGTAAACACTTGGTGGGTTGA [3d2083]” was 0.119; that for “TATCACTTGTCGTAAACACTTTATGGGTTGA [3d2088]” was 0.0805. The result for “TATCACTTGTCGTAAACACTTTGAGGGTTGA [3d2090]” reads 0.0504. The result for “TATCACTTGTCGTAAACACTTTGATGGGTTA [3d2092]” reads 0.0833; that for “TATCACTTGTCGTAAACACTTTGATGGGTTG [3d2093]”, 0.682; that for “TATCACTTGTCGTAAACACTTTGATGGGTTGA [2d238]”, 0.763.

“TATCACTTGTCGTAAACACTTTGATGGTTGA [3d2091]”: the fraction ligated stood at 0.0645. The value for “TATCACTTGTCGTAAACACTTTGGAGGGTTA [3d2099]” was 0.101; that for “TATCACTTGTCGTAAACACTTTGGAGGGTTG [3d2100]” was 0.0384. Sequence “TATCACTTGTCGTAAACACTTTGGAGGGTTGA [2d240]” registered a fraction ligated of 0.0926. The result for “TATCACTTGTCGTAAACACTTTGGAGGTTGA [3d2098]” reads 0.0433; that for “TATCACTTGTCGTAAACACTTTGGATGGGTT [3d2103]”, 0.628. The value for “TATCACTTGTCGTAAACACTTTGGATGGGTTA [2d242]” was 0.77. The sequence “TATCACTTGTCGTAAACACTTTGGATGGGTTG [2d243]” returned a fraction ligated of 0.827. For “TATCACTTGTCGTAAACACTTTGGATGGTTA [3d2101]”, the fraction ligated was determined as 0.169. The value for “TATCACTTGTCGTAAACACTTTGGATGGTTG [3d2102]” was 0.17.

With “TATCACTTGTCGTAAACACTTTGGATGGTTGA [2d241]”, the fraction ligated turned out to be 0.295. The value for “TATCACTTGTCGTAAACACTTTGGGGGTTGA [3d2094]” was 0.0881; that for “TATCACTTGTCGTAAACACTTTGGTGGGTTA [3d2096]” was 0.057; that for “TATCACTTGTCGTAAACACTTTGGTGGGTTG [3d2097]” was 0.0291. As for “TATCACTTGTCGTAAACACTTTGGTGGGTTGA [2d239]”, the fraction ligated stood at 0.0914. The value for “TATCACTTGTCGTAAACACTTTGGTGGTTGA [3d2095]” was 0.0341. The value for “TATCACTTGTCGTAAACACTTTGTGGGTTGA [3d2089]” was 0.0322; that for “TATCACTTGTCGTAAACATTGGATGGGTTGA [3d2074]” was 0.804; that for “TATCACTTGTCGTAAACATTTGATGGGTTGA [3d2075]” was 0.384.

Sequence “TATCACTTGTCGTAAACATTTGGAGGGTTGA [3d2077]” gave a fraction ligated of 0.0367. The value for “TATCACTTGTCGTAAACATTTGGATGGGTTA [3d2079]” was 0.822; that for “TATCACTTGTCGTAAACATTTGGATGGGTTG [3d2080]” was 0.826; that for “TATCACTTGTCGTAAACATTTGGATGGGTTGA [2d236]” was 0.83.

Sequence “TATCACTTGTCGTAAACATTTGGATGGTTGA [3d2078]” gave a fraction ligated of 0.15. The value for “TATCACTTGTCGTAAACATTTGGTGGGTTGA [3d2076]” was 0.0521; that for “TATCACTTGTCGTAAACCTTGGATGGGTTGA [3d2067]” was 0.783.

The values are drawn from the supplement of paper PMC6755084.
